B1: Recombinant rat EfnB1-FC (Fc fusion)
chain: ATPLAKNLEPVSWSSLNPKFLSGKGLVIYPKIGDKLDIICPRAEAGRPYEYYKLYLVRPEQAAACSTVLDPNVLVTCNKPQQEIRFTIKFQEFSPNYMGLEFKKYHDYYITSTSNGSLEGLENREGGVCRTRTMKIVMKVGQDPNAVTPEQLTTSRPSKESDNTVKTATQAPGRGSQGDSDGKHETVNQQEKSGPGAGGSGSGDTDSFFNSK

Experiments:
[1] = biological target: the molecule itself; test: single molecule AFM force measurement
[2] = biological target: B1; test: single molecule AFM force measurement

fold of heterophilic binding over EfnB1 homophilic binding [2] [fold]	Binder	binding result [1]
	B1	binds
	Desmocollin-3 complete extracellular region, biotinylated (Dsc3-ATH) (domain or fragment, biotin on the Avi-tag (BirA enzyme)) RWAPIPCSMQENSLGPFPLFLQQVESDAAQNYTVFYSISGRGVDKEPLNLFYIERDTGNLFCTRPVDREEYDVFDLIAYASTADGYSADLPLPLPIRVEDENDNHPVFTEAIYNFEVLESSRPGTTVGVVCATDRDEPDTMHTRLKYSILQQTPRSPGLFSVHPSTGVITTVSHYLDREVVDKYSLIMKVQDMDGQFFGLIGTSTCIITVTDSNDNAPTFRQNAYEAFVEENAFNVEILRIPIEDKDLINTANWRVNFTILKGNENGHFKISTDKETNEGVLSVVKPLNYEENRQVNLEIGVNNEAPFARDIPRVTALNRALVTVHVRDLDEGPECTPAAQYVRIKENLAVGSKINGYKAYDPENRNGNGLRYKKLHDPKGWITIDEISGSIITSKILDREVETPKNELYNITVLAIDKDDRSCTGTLAVNIEDVNDNPPEILQEYVVICKPKMGYTDILAVDPDEPVHGAPFYFSLPNTSPEISRLWSLTKVNDTAARLSYQKNAGFQEYTIPITVKDRAGQAATKLLRVNLCECTHPTQCRATSRSTGVILGK	binds
~3	E-cadherin complete extracellular region, biotinylated (Ecad-ATH) (domain or fragment, biotin on the Avi-tag (BirA enzyme)) DWVIPPISCPENEKGPFPKNLVQIKSNRDKEIKVFYSITGQGADAPPVGVFIIERETGWLKVTEPLDREQIAKYILYSHAVSSNGNAVEDPMEIVITVTDQNDNKPEFTQAVFQGSVTEGALPGTSVMQVTATDADDDVNTYNAAIAYSILTQDPLLPSSMMFTINKDTGVISVLTTGLDREGVPMYTLVVQAADLQGEGLTTTATAVITVTDINDNPPIFNPTTYQGRVPENKANVEIAVLKVTDADVPDTPAWRAVYTILNNNNDQFVVTTDPVTNDGILKTTKGLDFEDKQQYVLYVTVVNVTPFEVILSTSTATVTVDVEDVNEAPIFIPCPKVVSIPEDFGVGQEITSYTAEDPDTYMEQRITYRIWRDAAGWLEVNPESGAIFTRAELDREDFEHVKNSTYEALIIAIDNGSPVATGTGTLLLVLSDVNDNGPIPEPRNMDFCQKNPQPHVINIIDPDLPPNTSPFTAELTHGASVNWTIEYNDPARESLILKPKKTLELGDYKINLKLTDNQNKDQVTTLDVFVCDCEGVVNSCKRTAPYAEAGLQVPA	

Source: paper doi:10.1101/2020.05.08.084889 (bioRxiv, 2020)
